Laboratory results: article PMC2137388

Target: L chains of normal human 7S γ-globulin (human)
Assay: AUC

L chains of normal human 7S γ-globulin (natural protein)
per cent of the material at the molecular weight of the dimer: 84 per cent
